# Key:
# HLA-B*40:02 = assay: IEDB peptide-MHC binding, purified MHC/competitive/radioactivity; filed as Kd, often an IC50 or EC50 that approximates it; ≥ and ≤ were set here for values at or beyond the usual limits of such assays
# HLA-B*44:03 = assay: as above
# HLA-B*18:01 = assay: as above
# HLA-B*45:01 = assay: as above
# HLA-B*40:01 = assay: as above
# HLA-B*44:02 = assay: as above
# HLA-B*15:01 = assay: IEDB peptide-MHC binding, purified MHC/competitive/fluorescence; filed as Kd, often an IC50 or EC50 that approximates it; ≥ and ≤ were set here for values at or beyond the usual limits of such assays; conditions: source organism: Paracoccus denitrificans PD1222
# HLA-A*26:01 = assay: IEDB peptide-MHC binding, purified MHC/competitive/radioactivity; filed as Kd, often an IC50 or EC50 that approximates it; ≥ and ≤ were set here for values at or beyond the usual limits of such assays
# HLA-A*30:01 = assay: as above
# HLA-A*29:02 = assay: as above
# HLA-A*30:02 = assay: as above
# HLA-A*01:01 = assay: as above
# HLA-A*32:01 = assay: as above
# HLA-A*02:06 = assay: as above
# HLA-A*02:01 = assay: as above
# HLA-A*68:02 = assay: as above
# HLA-A*02:02 = assay: as above; conditions: source organism: Trypanosoma cruzi
# HLA-A*02:03 = assay: as above; conditions: source organism: Trypanosoma cruzi
# [1] = source organism: Mammarenavirus brazilense
# [2] = source organism: SARS coronavirus Tor2
# [3] = source organism: Mammarenavirus machupoense
# [4] = source organism: Mammarenavirus whitewaterense
# [5] = source organism: Trypanosoma cruzi
# [6] = source organism: Mammarenavirus lassaense
sequence,measurement,setting,value
AENDIVEAL,Kd,HLA-B*40:02; [1],0.0252 µM
same,Kd,HLA-B*44:03; [1],0.108 µM
same,Kd,HLA-B*18:01; [1],10.8 µM
same,Kd,HLA-B*45:01; [1],1.03 µM
same,Kd,HLA-B*40:01; [1],0.00587 µM
same,Kd,HLA-B*44:02; [1],0.0435 µM
AEWVLAYMLF,Kd,HLA-B*40:02; [2],0.0192 µM
same,Kd,HLA-B*44:03; [2],0.00916 µM
same,Kd,HLA-B*18:01; [2],0.327 µM
same,Kd,HLA-B*45:01; [2],0.041 µM
same,Kd,HLA-B*40:01; [2],0.152 µM
same,Kd,HLA-B*44:02; [2],0.0162 µM
ALAAAGAAY,Kd,HLA-B*15:01,0.123 µM
CEEMLDNRAT,Kd,HLA-B*40:02; [2],8.59 µM
same,Kd,HLA-B*44:03; [2],10.3 µM
same,Kd,HLA-B*18:01; [2],≥ 46.1 µM
same,Kd,HLA-B*45:01; [2],0.139 µM
same,Kd,HLA-B*40:01; [2],18.3 µM
same,Kd,HLA-B*44:02; [2],0.56 µM
DESGLNISGY,Kd,HLA-B*40:02; [1],≥ 70.8 µM
same,Kd,HLA-B*44:03; [1],7.83 µM
same,Kd,HLA-B*18:01; [1],0.199 µM
same,Kd,HLA-B*45:01; [1],≥ 70 µM
same,Kd,HLA-B*40:01; [1],≥ 69.5 µM
same,Kd,HLA-B*44:02; [1],12.8 µM
DESKKEINLL,Kd,HLA-B*40:02; [3],≥ 70.8 µM
same,Kd,HLA-B*44:03; [3],≥ 70.1 µM
same,Kd,HLA-B*18:01; [3],2.88 µM
same,Kd,HLA-B*45:01; [3],≥ 70 µM
same,Kd,HLA-B*40:01; [3],≥ 69.5 µM
same,Kd,HLA-B*44:02; [3],≥ 70.2 µM
DLGLLYTAKY,Kd,HLA-A*26:01; [4],1 µM
same,Kd,HLA-A*30:01; [4],≥ 58.4 µM
same,Kd,HLA-A*29:02; [4],0.386 µM
same,Kd,HLA-A*30:02; [4],0.0369 µM
same,Kd,HLA-A*01:01; [4],13.7 µM
same,Kd,HLA-A*32:01; [4],≥ 69.9 µM
EEAIRHVRA,Kd,HLA-B*40:02; [2],5.53 µM
same,Kd,HLA-B*44:03; [2],5.81 µM
same,Kd,HLA-B*18:01; [2],≥ 55.7 µM
same,Kd,HLA-B*45:01; [2],0.0398 µM
same,Kd,HLA-B*40:01; [2],5.59 µM
same,Kd,HLA-B*44:02; [2],2.78 µM
EEPVALLPLS,Kd,HLA-B*40:02; [3],4.41 µM
same,Kd,HLA-B*44:03; [3],2.94 µM
same,Kd,HLA-B*18:01; [3],15.5 µM
same,Kd,HLA-B*45:01; [3],0.795 µM
same,Kd,HLA-B*40:01; [3],5.16 µM
same,Kd,HLA-B*44:02; [3],8.42 µM
EEVVLKNGEL,Kd,HLA-B*40:02; [2],0.0139 µM
same,Kd,HLA-B*44:03; [2],0.0148 µM
same,Kd,HLA-B*18:01; [2],0.381 µM
same,Kd,HLA-B*45:01; [2],1.33 µM
same,Kd,HLA-B*40:01; [2],0.00633 µM
same,Kd,HLA-B*44:02; [2],0.0467 µM
ELRSKREQEV,Kd,HLA-A*02:06; source organism: Homo sapiens,≥ 72.5 µM
same,Kd,HLA-A*02:01; source organism: Homo sapiens,18.8 µM
same,Kd,HLA-A*68:02; source organism: Homo sapiens,2.53 µM
EMRQKHSQAV,Kd,HLA-A*02:06; source organism: Homo sapiens,≥ 72.5 µM
same,Kd,HLA-A*02:01; source organism: Homo sapiens,≥ 33.9 µM
same,Kd,HLA-A*68:02; source organism: Homo sapiens,0.512 µM
EWIFRALKY,Kd,HLA-A*26:01; [1],7.08 µM
same,Kd,HLA-A*30:01; [1],≥ 38 µM
same,Kd,HLA-A*29:02; [1],0.183 µM
same,Kd,HLA-A*30:02; [1],7.75 µM
same,Kd,HLA-A*01:01; [1],≥ 37.3 µM
same,Kd,HLA-A*32:01; [1],≥ 77.8 µM
FEVLAVEDT,Kd,HLA-B*40:02; [2],1.87 µM
same,Kd,HLA-B*44:03; [2],13.5 µM
same,Kd,HLA-B*18:01; [2],3.4 µM
same,Kd,HLA-B*45:01; [2],11.6 µM
same,Kd,HLA-B*40:01; [2],10.9 µM
same,Kd,HLA-B*44:02; [2],≥ 47.9 µM
FLPSDFFPSA,Kd,HLA-A*02:01; source organism: Hepatitis B virus,0.023 µM
GESVKTQFNY,Kd,HLA-B*40:02; [2],0.486 µM
same,Kd,HLA-B*44:03; [2],0.295 µM
same,Kd,HLA-B*18:01; [2],≥ 20.1 µM
same,Kd,HLA-B*45:01; [2],7.63 µM
same,Kd,HLA-B*40:01; [2],11.6 µM
same,Kd,HLA-B*44:02; [2],0.479 µM
GLLPLFLLLG,Kd,HLA-A*02:06; [5],0.0183 µM
same,Kd,HLA-A*02:02,0.0291 µM
same,Kd,HLA-A*02:01; [5],0.000154 µM
same,Kd,HLA-A*02:03,0.138 µM
same,Kd,HLA-A*68:02; [5],7.59 µM
KEAYCQEFSL,Kd,HLA-B*40:02; [6],0.00968 µM
same,Kd,HLA-B*44:03; [6],16.1 µM
same,Kd,HLA-B*18:01; [6],≥ 36.9 µM
same,Kd,HLA-B*45:01; [6],5.69 µM
same,Kd,HLA-B*40:01; [6],0.0883 µM
same,Kd,HLA-B*44:02; [6],4.18 µM

# Reference: the Immune Epitope Database (IEDB)
